In patent US20110300138A1 (published 2011):
Values belong to the molecule of their own block, whether it stands above or below them.

Tests used:
[1] = target: thyroid stimulating hormone receptor (TSHR), full length human TSHR (human) (UniProt P16473); assay: TSH-biotin competition ELISA, TSHR coated wells; negative control, 10 µg/mL in assay buffer
[2] = target: thyroid stimulating hormone receptor (TSHR), full length human TSHR (human) (UniProt P16473); assay: TSH-biotin competition ELISA, TSHR coated wells; negative control, 100 µg/mL in assay buffer
[3] = target: human thyroid stimulating hormone receptor (TSHR), full length (human) (UniProt P16473); assay: 125I-K1-70 Fab (competitor) binding to TSHR coated tubes; negative control MAb 100 µg/mL in HBD serum
[4] = target: human thyroid stimulating hormone receptor (TSHR), full length (human) (UniProt P16473); assay: 125I-K1-70 Fab (competitor) binding to TSHR coated tubes; negative control MAb 0.01 µg/mL in HBD serum
[5] = target: human thyroid stimulating hormone receptor (TSHR), full length (human) (UniProt P16473); assay: 125I-K1-70 Fab (competitor) binding to TSHR coated tubes; negative control MAb 10 µg/mL in assay buffer
[6] = target: human TSH receptor (full length) coated on ELISA plate wells (human) (UniProt P16473); assay: TSH-biotin binding inhibition ELISA, TSHR coated wells; 10 µg/mL in HBD serum pool; negative control MAb
[7] = target: TSHR (full length) coated on tubes (human) (UniProt P16473); assay: inhibition of 125I-K1-18 Fab (competitor) binding to TSHR coated tubes; negative control 1 µg/mL in assay buffer
[8] = target: TSH receptor (TSHR), full length human, coated on tubes (human) (UniProt P16473); assay: inhibition of 125I-K1-18 IgG binding to TSHR coated tubes; competitor 125I-K1-18 IgG; negative control sample at 0.01 µg/mL in assay buffer
[9] = target: human TSHR on transfected CHO cells (human, UniProt P16473 22-764); assay: cell-based or functional assay
[10] = target: thyroid stimulating hormone receptor (TSHR), full length human TSHR (human) (UniProt P16473); assay: TSH-biotin competition ELISA, TSHR coated wells; 10 µg/mL in HBD serum
[11] = target: TSHR (thyroid stimulating hormone receptor), full length human (human) (UniProt P16473); assay: competitor ^125I-K1-70 IgG, TSHR coated tubes; 1 µg/mL in assay buffer
[12] = target: TSHR (full length) coated on tubes (human) (UniProt P16473); assay: inhibition of 125I-K1-18 Fab (competitor) binding to TSHR coated tubes; test sample 0.1 µg/mL in HBD serum
[13] = target: TSHR (full length) coated on tubes (human) (UniProt P16473); assay: inhibition of 125I-K1-18 Fab (competitor) binding to TSHR coated tubes; test sample 100 µg/mL in assay buffer
[14] = target: TSH receptor (TSHR), full length human, coated on tubes (human) (UniProt P16473); assay: inhibition of 125I-K1-18 IgG binding to TSHR coated tubes; competitor 125I-K1-18 IgG; sample at 0.01 µg/mL in HBD serum
[15] = target: TSH receptor (TSHR), full length human, coated on tubes (human) (UniProt P16473); assay: inhibition of 125I-K1-18 IgG binding to TSHR coated tubes; competitor 125I-K1-18 IgG; sample at 1 µg/mL in assay buffer
[16] = target: TSHR with Glu157 mutated to Ala, expressed in CHO cells (human) (UniProt P16473); assay: cell-based or functional assay
[17] = target: TSHR with Arg109 mutated to Ala, expressed in CHO cells (human) (UniProt P16473); assay: cell-based or functional assay
[18] = target: wild type TSHR (human TSH receptor) expressed in CHO cells (human) (UniProt P16473); assay: cell-based or functional assay
[19] = target: human thyroid stimulating hormone receptor (TSHR), full length (human) (UniProt P16473); assay: 125I-K1-18 Fab competition, TSHR coated tubes; 1 µg/mL in HBD
[20] = target: human TSH receptor (full length) coated on ELISA plate wells (human) (UniProt P16473); assay: TSH-biotin binding inhibition ELISA, TSHR coated wells; 0.01 µg/mL in assay buffer
[21] = target: thyroid stimulating hormone receptor (TSHR), full length, coated on tubes (human) (UniProt P16473); assay: inhibition of 125I-TSH binding, TSHR coated tubes; antibody 1 µg/mL in assay buffer
[22] = target: TSH receptor (TSHR), full length human, coated on tubes (human) (UniProt P16473); assay: inhibition of 125I-TSH binding to TSHR coated tubes; 1 µg/mL, diluted in HBD serum pool
[23] = target: TSH receptor (TSHR) coated on tubes (human) (UniProt P16473); assay: inhibition of 125I-K1-70 IgG binding to TSHR coated tubes; sample 1 µg/mL in HBD serum pool
[24] = target: TSH receptor (TSHR) coated on tubes (human) (UniProt P16473); assay: inhibition of 125I-K1-70 IgG binding to TSHR coated tubes; sample 0.1 µg/mL in HBD serum pool
[25] = target: TSH receptor (TSHR), full length human, coated on tubes (human) (UniProt P16473); assay: inhibition of 125I-K1-18 IgG (competitor) binding to TSHR coated tubes; test sample at 1 µg/mL in assay buffer

Inhibition of binding (%) [1]: -8.4%
Inhibition of binding (%) [2]: 1.3%
Inhibition of binding (%) [3]: -8.6%
Inhibition of binding (%) [4]: -5.3%
Inhibition of binding (%) [5]: -2.1%
% inhibition of TSH-biotin binding [6]: 11.6%
Inhibition of binding (%) [7]: -0.9%
Inhibition of binding (%) [8]: -4.2%
Molecule: 5B3 IgG (antibody)

TSHR constitutive (basal) cyclic AMP activity [9]: 2 x basal
Inhibition of binding (%) [10]: 83.2%
Inhibition of binding (%) [11]: 37.2%
Inhibition of binding (%) [12]: 32.2%
Inhibition of binding (%) [13]: 81.5%
Inhibition of binding (%) [14]: 5.3%
Inhibition of binding (%) [15]: 63%
Molecule: 9D33 IgG (antibody)

Mutated/Wild type (%) of cyclic AMP produced, TSH 0.01 ng/mL [16]: 450%
Mutated/Wild type (%) of cyclic AMP produced, TSH 0.03 ng/mL [16]: 328%
Mutated/Wild type (%) of cyclic AMP produced, TSH 0.1 ng/mL [16]: 164%
Mutated/Wild type (%) of cyclic AMP produced, TSH 0.3 ng/mL [16]: 118%
Mutated/Wild type (%) of cyclic AMP produced, TSH 1 ng/mL [16]: 86%
Mutated/wild type (%) of cyclic AMP produced; TSH 3 ng/mL [16]: 115%
Cyclic AMP produced, mutated TSHR, TSH 0.01 ng/mL [17]: 3.15 pmol/mL
Cyclic AMP produced, mutated TSHR, TSH 0.03 ng/mL [17]: 4.92 pmol/mL
Cyclic AMP produced, mutated TSHR, TSH 0.1 ng/mL [17]: 8.39 pmol/mL
Cyclic AMP produced, mutated TSHR, TSH 0.3 ng/mL [17]: 39.2 pmol/mL
Cyclic AMP produced, mutated TSHR, TSH 1 ng/mL [17]: 43.8 pmol/mL
Cyclic AMP produced, mutated TSHR, TSH 3 ng/mL [17]: 55.2 pmol/mL
Mutated/Wild type (%) of cyclic AMP produced, TSH 0.01 ng/mL [17]: 115%
Mutated/Wild type (%) of cyclic AMP produced, TSH 0.03 ng/mL [17]: 116%
Mutated/Wild type (%) of cyclic AMP produced, TSH 0.1 ng/mL [17]: 89%
Mutated/Wild type (%) of cyclic AMP produced, TSH 0.3 ng/mL [17]: 99%
Mutated/Wild type (%) of cyclic AMP produced, TSH 1 ng/mL [17]: 72%
Mutated/wild type (%) of cyclic AMP produced; TSH 3 ng/mL [17]: 78%
Cyclic AMP produced, wild type TSHR, TSH 0.01 ng/mL [18]: 2.74 pmol/mL
Cyclic AMP produced, wild type TSHR, TSH 0.03 ng/mL [18]: 4.24 pmol/mL
Cyclic AMP produced, wild type TSHR, TSH 0.1 ng/mL [18]: 9.39 pmol/mL
Cyclic AMP produced, wild type TSHR, TSH 0.3 ng/mL [18]: 39.6 pmol/mL
Cyclic AMP produced, wild type TSHR, TSH 1 ng/mL [18]: 61.2 pmol/mL
Cyclic AMP produced, wild type TSHR, TSH 3 ng/mL [18]: 70.6 pmol/mL
Molecule: TSH (ligand)

Inhibition of binding (%) [19]: 23.2%
% inhibition of TSH-biotin binding [20]: 16.1%
Inhibition of binding (%) [21]: 23.5%
Inhibition of binding (%) [22]: 24.8%
Inhibition of binding (%) [23]: 15.4%
Inhibition of binding (%) [24]: 4.4%
Inhibition of binding (%) [25]: 48%
B1: 5C9 IgG (antibody, from another filing, V domains shown)
VH: EVQLVESGGGLIQPGGSLRLSCAASGFTVSSNYMSWVRQAPGKGLEWVSVTYSGGSTSYADSVKGRFTISRDNSKNTLYLQMNSLRAEDTAVYYCARGGRYCSSISCYARSGCDYWGQGTLVTVSS
VL: AIQMTQSPSSLSASVGDRVTITCRASQSISNYLNWYQQKPGKAPKLLIYAASSLQSGVPSRFSGSGSGTDFTLTISSLQPEDFATYYCQQSYSSPSTTFGQGTKLEIK
